Measurements published in the supplement of paper PMC11908140.

B1: library; numbered along this chain (parent)
chain: MRKPRAAVGSGHRKQAASQEGRQKHAKNNSQAKPSACDGLARQPEEVVLQASVSSYHLFRDVAEVTAFRGSLLSWYDQEKRDLPWRRRAEDEMDLDRRAYAVWVSEVMLQQTQVATVINYYTGWMQKWPTLQDLASASLEEVNQLWAGLGYYSRGRRLQEGARKVVEELGGHMPRTAETLQQLLPGVGRYTAGAIASIAFGQATGVVDGNVARVLCRVRAIGADPSSTLVSQQLWGLAQQLVDPARPGDFNQAAMELGATVCTPQRPLCSQCPVESLCRARQRVEQEQLLASGSLSGSPDVEECAPNTGQCHLCLPPSEPWDQTLGVVNFPRKASRKPPREESSATCVLEQPGALGAQILLVQRPNSGLLAGLWEFPSVTWEPSEQLQRKALLQELQRWAGPLPATHLRHLGEVVHTFSHIKLTYQVYGLALEGQTPVTTVPPGARWLTQEEFHTAAVSTAMKKVFRVYQGQQPGTCMGSKRSQVSSPCSRKKPRMGQQVLDNFFRSHISTDAHSLNSAAQ

Variants of: B1
Assay: 8OG:A repair function score (normalized; synonymous = 0, nonsense = -1) (normalized log-likelihood score); higher = more repair activity (WT-like)
Settings: with 8OG:A DNA repair reporter (GFP) in HEK-293 MUTYH KO cells
In short: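 Lentiviral MUTYH cDNA NNN codon-scan libraries in HEK-293 MUTYH knockout cells (10 pg/ml doxycycline) were co-transfected with an 8OG:A GFP repair reporter plus mCherry. At 72 h, viable mCherry+ cells were sorted into GFP+ (repair) and GFP− bins, three replicates per tile, then tile amplicons were sequenced. Per-tile Rosace fitness scores became a normalized repair function score anchored on synonymous and nonsense distributions. Synonymous medians were set to 0 and nonsense to -1; variants under 300 counts per million at the start were removed.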

Row | Variant | 8OG:A repair function score
1 | A192E | -0.908
2 | G209D | -0.851
3 | N307S | -0.00118
4 | S74M | 0.00605
5 | G39V | 0.0274
6 | E382Y | 0.217
7 | D300T | -0.109
8 | G434N | -0.392
9 | L349N | -0.957
10 | G193Y | -0.241
11 | P34C | 0.0156
12 | Q363G | -0.38
13 | A192K | -1.07
14 | L432S | -0.284
15 | E64F | -1.97
16 | M108R | -1.2
17 | G39I | -0.0353
18 | Q182F | -0.161
19 | E46L | -0.211
20 | L392A | -0.807
21 | F200I | -0.505
22 | E92H | -0.0814
23 | Q473M | 0.0265
24 | C278Q | -1.14

Row | Variant | 8OG:A repair function score
25 | D224W | -0.942
26 | H420L | -0.527
27 | S227V | -0.241
28 | H508E | 0.0183
29 | E413V | -0.059
30 | E178L | -0.106
31 | G155Y | -0.667
32 | S318N | -0.0704
33 | E302L | -0.236
34 | R482K | 0.021
35 | P299K | -0.0515
36 | L149D | -1.19
37 | V166E | -0.327
38 | V207Q | -0.868
39 | L237Y | -0.0407
40 | E382L | 0.0169
41 | Q484P | 0.0115
42 | G368K | -0.348
43 | L234K | -0.869
44 | Q252D | -1.01
45 | P443W | -0.309
46 | Q282W | -0.0465
47 | G258R | -1.2
48 | N210R | -1.03

Row | Variant | 8OG:A repair function score
49 | W103P | -1.09
50 | E46K | -0.0383
51 | W128T | -0.721
52 | S335Y | -0.0347
53 | L277P | -0.383
54 | A6R | -0.0747
55 | L396H | -0.886
56 | F68K | -0.962
57 | R86H | -1.85
58 | N307F | -0.00176
59 | L145A | 0.0661
60 | G258Q | -1.21
61 | R87D | -0.0278
62 | P352A | -0.0351
63 | A431N | 0.00246
64 | Q43G | -0.0204
65 | F68W | -0.369
66 | A162D | -1.2
67 | A280G | -0.137
68 | A162P | -1.19
69 | G150R | -1.3
70 | A101N | -0.0446
71 | D502E | -0.0204
72 | A345I | 0.0369

Row | Variant | 8OG:A repair function score
73 | A259E | -0.0308
74 | S52W | -0.00265
75 | L139P | 0.0573
76 | E256G | -0.676
77 | H407I | 0.0779
78 | L134K | -0.914
79 | G186N | -0.814
80 | Q265I | -0.0274
81 | F504E | 0.0256
82 | A291D | -0.119
83 | H420Q | -0.0915
84 | F376T | -0.441
85 | E433Y | -0.0863
86 | T511P | -0.0422
87 | Q288K | -0.0373
88 | R88F | -0.00866
89 | V414H | -0.326
90 | E433Q | 0.165
91 | A220V | -0.57
92 | S197N | -1.17
93 | C311S | -0.588
94 | Y425W | -0.328
95 | C311Y | -0.394
96 | G205S | -0.352

Row | Variant | 8OG:A repair function score
97 | Q386M | 0.34
98 | A41G | -0.0656
99 | V53G | -0.0541
100 | P316F | -0.198
101 | Q521R | -0.0139
102 | E342T | -0.0198
103 | W124G | -0.892
104 | D94F | -0.287
105 | R97Q | 0.00692
106 | R219S | -0.772
107 | E64W | -0.219
108 | L393E | -0.395
109 | A196Y | -0.723
110 | S459L | -0.866
111 | R332K | -0.206
112 | C304Y | -0.341
113 | P267K | -1.06
114 | I118F | -0.3
115 | V468K | -0.0375
116 | Q288P | -0.036
117 | L290Q | -0.0401
118 | Q470I | 0.00254
119 | A115V | 0.00984
120 | R81N | -0.365

Row | Variant | 8OG:A repair function score
121 | E382D | -0.0303
122 | R219F | -0.485
123 | S480W | 0.022
124 | D61L | 0.00218
125 | C272R | -1.35
126 | D208N | -0.984
127 | R81A | -0.345
128 | R157C | -0.297
129 | L403M | -0.0231
130 | K127C | 0.0938
131 | G258M | -1.19
132 | G479H | 0.0228
133 | A405T | -0.128
134 | M125R | -0.877
135 | A199M | -0.87
136 | A371H | -0.324
137 | Q126N | 0.0504
138 | W103A | -0.808
139 | T191K | -1.26
140 | I195D | -1.1
141 | E375I | -0.715
142 | E141N | 0.127
143 | R340T | -0.0938
144 | G186S | -0.34

Row | Variant | 8OG:A repair function score
145 | E178G | -0.126
146 | L257Q | -0.72
147 | Y190C | -0.373
148 | A89W | -0.0308
149 | Q388I | 0.175
150 | A431C | -0.0248
151 | G475H | -0.0609
152 | Q310P | -0.0353
153 | D77V | -0.0835
154 | L369Y | 0.153
155 | K464W | -0.474
156 | L411N | -0.503
157 | W146H | -0.738
158 | H508R | -0.0128
159 | Q351M | 0.0542
160 | F68L | -0.141
161 | G171T | -0.321
162 | Q113R | 0.032
163 | L229D | -0.158
164 | I118Y | -0.223
165 | T122Y | -0.13
166 | S71E | -0.0479
167 | S510L | 0.0205
